# From the nanobody polyreactivity screen of Harvey et al. (2022)
# Test: yeast display, Sf9 membrane polyspecificity reagent, FACS + sequencing; frameworks hold sequencing errors
# Summary of the method: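 A synthetic nanobody library was expressed on Saccharomyces cerevisiae BJ5465 by galactose induction for 36–48 hours. The library was stained for 1 hour at 4 °C with 10% biotinylated, detergent-solubilized Sf9 membrane reagent and enriched with streptavidin microbeads before FACS. Low and high (top ~1%) gates were set on anti-HA fluorescence for expression and streptavidin fluorescence for reagent binding, and each polyreactivity label reflects the gate of origin.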
row,Sequence,polyreactivity (PSR sort gate)
1,QVQLVDSGGGLVQAGGSLRLSCAASGRIFNWYAMGWYRQAPGKERELVARITWCDGGTYYADSVKGRFTISRDNAKNTVSLQMNSLKPDDTAVYYCAKQWKSYYALDYWGQGTQVTVSS,high polyreactivity
2,QVQLVDSGGGLVQAGGSLRLSCAASGRIFPRNAMGWYRQAPGKERELVATIRSSTYYADSVKGRFTISRDNAKNTVYLQMNSLKPEDTAVYYCNVRLSYSYISPSDWNFDYWGQGTQVTVSS,low polyreactivity
3,QVQLVDSGGGLVQAGGSLRLSCAASGRIFPVYAMAWYRHAPGKEREMVAAITKSGGNTYYADSVKGRFTISRDNAKYTVYLQMNSMKPEDTAVYYCAADSSAKMGPQYYYALDYWGQGTKVTVSS,low polyreactivity
4,QVQLVDSGGGLVQAGGSLRLSCAASGRIFPYYTMGCYRQAPGKETEFVAAISSSSVSTYYADSVKGRFTISRDNAKNTVYLQMNSLKAEDTAVYYCAAKRVGYHIGYVYPYGYWGQGTQVTVSS,high polyreactivity
5,QVQLVDSGGGLVQAGGSLRLSCAASGRIFRGYAMGWYRQAPGKERELVAAITSGGITNYADSVKGRFTISRDNAKNTVYLQMNRLKPEDTAVYYCNTRRGWRDFDYWGQGTQVTVSS,low polyreactivity
6,QVQLVDSGGGLVQAGGSLRLSCAASGRIFSWYTMGWYRQAPGKERELVAVITSGGTTKYADSVKGRFTISRDNAKNTVYLQMNSLKPEDTAVYYCNGAGRDYAVRWGSFDYWGQGTQVTVSS,low polyreactivity
7,QVQLVDSGGGLVQAGGSLRLSCAASGRIFYRYALGWYRQAPGKERELVAAITRGGRTNYADSVKGRFTISRDNAQNTVYLQMNSLKPEDTAVYYCRPLWYGFDYWGQGTQVTVSS,high polyreactivity
8,QVQLVDSGGGLVQAGGSLRLSCAASGRTFGSYAMGWSRQAPGKERELVAAISSSGGRTYYADSVKGRFTISRDNAKNTVYLQLNSLKPEDTAVYYCNARWRFLYDYWGQGTQVTVSS,high polyreactivity
9,QVQLVDSGGGLVQAGGSLRLSCAASGRTFSYYGMGWYRQAPGQERELVACIRRRGGSTYYADSVKGRFTISRDNAKNNVSLQMNSLNPEDTAVYYCTAATYGDYSNLGYGYWGQGTQVTVSS,high polyreactivity
10,QVQLVDSGGGLVQAGGSLRLSCAASGRTFVSYAMGWYRQAPGKERELVAAISRSGGRTYYADSVKGRFTISRDNAMNSVYLQMNCLKPEDTAVYYCATKQYGTLARYDYWGQGSQVTVSS,high polyreactivity
11,QVQLVDSGGGLVQAGGSLRLSCAASGRTFYSYAMGWYRQAPGKERELVSAISRNGGSTYYADSVKGRFTISRDNAKNSVYLQMNSLKPEDTAVYYCAAKRAGPYGISKGMDYWGQGTQVTVSS,high polyreactivity
12,QVQLVDSGGGLVQAGGSLRLSCAASGRTFYYYAMGWSRQEPGKEREFDADISGRGGTTYYADSVKGRFTISRDNAKKTVYLLMNSLKPEDTAVYYCAARSVSTLRYTSRKLRYDYWGQGTQVSVSS,high polyreactivity
13,QVQLVDSGGGLVQAGGSLRLSCAASGRTFYYYAMGWYRQAPGKERELVADIRGRGGSTYYADSVKGRFTISRDNAKNTVYLQMNSLKPEDTAVYYCARRSPNPYSIYYYWGQGTQVTVSS,high polyreactivity
14,QVQLVDSGGGLVQAGGSLRLSCAASGRTLWYYTMGWYRQAPGKERELVADITRGTSTNYADSVKVRFTISRDNAKNTVYLQMNSLKPEDTAVYYCNRAHGRSRYSRDYDSWGQGTQVTVSS,low polyreactivity
15,QVQLVDSGGGLVQAGGSLRLSCAASGSIFKRNAMGWYRQAPGKERELVATISSRGGSTYYADSVKGRFTISRDNAKNTVYLQMNSLKPEDTAVYYCSARGYQITGNYYTPTSKYNYWGQGTQVTVSS,high polyreactivity
16,QVQLVDSGGGLVQAGGSLRLSCAASGSIFPPYAMGWYRQAPGKERELVARISWSTSSTNYADSVKGRFTISRDNAKNTVYLQMNSLKPEVTAVYYCAADYYVFPGYDYWGQGTQVTVSS,high polyreactivity
17,QVQLVDSGGGLVQAGGSLRLSCAASGSIFRPYARGWYRQAPWKERELVASIRWYDGSTYYADSVKGRFTSSRDNAMNTVYLQMNSLKPEDSAVYYCAADYYSQLAGIFDYWGQGTQVTVSS,low polyreactivity
18,QVQLVDSGGGLVQAGGSLRLSCAASGSIFSSYVRGWYRQAPGKERELVAAITSRGGSTYYADSVKGRFTISRDNAKNTVYLQMNSLKPEDTAVYYCAKGGTLGGYWGQGTQVTVSS,high polyreactivity
19,QVQLVDSGGGLVQAGGSLRLSCAASGSIFTAYAMGWYRQAPGKERELVAAITSGGSTNYADSVKGRFTISRDNAKNTVYLQMNSLKPEDTAVYYCNADDYWLDSWSSVLWYDYWGQGTQVTVSS,low polyreactivity
20,QVQLVDSGGGLVQAGGSLRLSCAASGSIFVFYDMGWYSQAPGKEREMVATISSGGGGTYYTDSVKGRFTISRDNAKNTVYLQMNSLKPEDTAVYYCAAEGDKYGKGYGYWGQGTQVTVSS,low polyreactivity
21,QVQLVDSGGGLVQAGGSLRLSCAASGSIFVHYAMGWSRQAPGKEWELVAAITSSGGRTYYADSVKGRFTISRDNAKKTVYLQMNSLKPEDTEVYYCAAKQGRYNIYSNYDYWGQGTQVTVSS,high polyreactivity
22,QVQLVDSGGGLVQAGGSLRLSCAASGSIFYAYAMGWYRQATGKERQLLAVISRGGITNYSDSVKGRFTISRDNAKNTFFLQMNSLNPEDTAVYYCAAATSAWGYLRRYGYWGQGTQVTVSS,low polyreactivity

row,Sequence,polyreactivity (PSR sort gate)
1,QVQLVDSGGGLVQAGGSLRLSCAASGSIFYNYVMGWCRQAPGKEREMVAAISSGGGTNYADSVKGRFTISRDNAKYTVYLQMNSLKPEDTAVYYCAKASAYGLANDYDYWGQGTQVTVSS,low polyreactivity
2,QVQLVDSGGGLVQAGGSLRLSCAASGSIIKRKAMGWYRQAPGKERELVASISSGGSTHYADSVKGRFTISRDNAKNTVYLQMNSLKPEDTAVYYCAATSIRWSVGSFRRDYWGQGTQVTVSS,low polyreactivity
3,QVQLVDSGGGLVQAGGSLRLSCAASGSISSFYAMGWYRQAPGKERELVAGITSGGSTNYADSVKGRFTISRDNAKNTVYLQMNSLKPEDTAVYYCAAVYKGAGTHFDVFVKEFDYWGQGTQVTVSS,low polyreactivity
4,QVQLVDSGGGLVQAGGSLRLSCAASGSISYYNAMGWYRQAPGKERELVATITDSGGSTYYADSVKGRFTISRDNAKNTVYLQMNSLKPEDTAVYYCAVDYSEWYSIYDYWGQGTQVTVSS,low polyreactivity
5,QVQLVDSGGGLVQAGGSLRLSCAASGSIVYYNDMGWYRQAPGKEREVVATITSGGTTYYADSVKGRFTISRDNAKNSVYVQMNSLKGEDTAVYYCAATSYPGFDDWGQGSQVTVSS,low polyreactivity
6,QVQLVDSGGGLVQAGGSLRLSCAASGSTFALYAMGWYRQAPGKERELVAAITWSGTGTYYADSVKGRFTISRDNAKNTVYLQMNSLKPEDTAVYSCNAEYWWWGLGNDYWGQGTQVTVSS,low polyreactivity
7,QVQLVDSGGGLVQAGGSLRLSCAASGSTFDTNVMGWYRQAPGKERELVAAIDVSGGSTYYADSVKGRFTISRDNAKNTVYLQMNSLKPVDTAVYYCAAEDGQYGMDYWGQGTQVSVSS,low polyreactivity
8,QVQLVDSGGGLVQAGGSLRLSCAASGSTFISYAMGWYRQAPGKERELVAAISRRGDSTYYADSVKGRFTISRDNAKNNVYLEMNSLKPEDTAVYYCAADVSGDKGSIHMNYWGQGTLVTVSS,low polyreactivity
9,QVQLVDSGGGLVQAGGSLRLSCAASGSTFPIYAMEWYRQAPGKERELVAAISSGGSTYYADSVKGRFTISRDNAKNTVYLQMNSLKPEDTAVYYCAADYSQPNFEYYYWGQGTQVTVSS,low polyreactivity
10,QVQLVDSGGGLVQAGGSLRLSCAASGSTFRRNALGWYRQAPGKERELVAAITRSGGRTYYADSVKGRFTISRDNAKNTVYLQMNSLKPEDTAVYYCAARHAPTRYGYWGQGTQVTVSS,high polyreactivity
11,QVQLVDSGGGLVQAGGSLRLSCAASGSTFSHYTMGWYRQAPGKERELVAAINYGGASTYYADSVKGRFTISRDNAKNTVYLQMNSLKPEDTAVYYCAAANRPSEQDNYWGQGTQVTVSS,low polyreactivity
12,QVQLVDSGGGLVQAGGSLRLSCAASGSTFTRNVMGWYRQAPGKERELVASISRSGGRTYYADSVKGRFTISRDNAMNTVYLQMNSMKPDDTAVYYCAAKYFYYLDPYDYWGQGTHVTVSS,high polyreactivity
13,QVQLVDSGGGLVQAGGSLRLSCAASGSTFVKYTMGWYRQAPGKERELVAVISRSGGSTYYADSVKGRFTISRDNAKNTVYLQMNSLKPEDTAVYYCAAHFSRDFDYWGLGTQVTVSS,high polyreactivity
14,QVQLVDSGGGLVQAGGSLRLSCAASGSTFYAYVMGWYRQAPGKERELVAGITWSGGSTYYADSVKGRFTISRDNAKNTVYLQMNSLKPEDTAVYYCAADYYNTYGYDYWGQGTQVTVSS,low polyreactivity
15,QVQLVDSGGGLVQAGGSLRLSCAASGSTFYEYAMGWYRQPPGKERELVAAITSGGSTYYADSVKGRFTISRDNAKNTVYLQMNSLKPEDTAVYYCAADPRIRRGDRSTHGYDYWGQGTQVTVSS,low polyreactivity
16,QVQLVDSGGGLVQAGGSLRLSCAASGSTFYFKAMGWYRQAPGKEREFVATIRSGGSTYYADSVKGRFTISRDYAKNSVYLQMNSLTPEDTAVYYCAADLVDSYQWSIFLYGYWGQGTQVTVSW,low polyreactivity
17,QVQLVDSGGGLVQAGGSLRLSCAASGSTLAYYTMGWYRQAPGKERELVAAITSGGFTHYADSVKGRFTISRDNAKNTVYLQMNSLKPEDTAVYYCAAKRGPVYYGYYYLGQGTQVTVSS,high polyreactivity
18,QVQLVDSGGGLVQAGGSLRLSCAASGSTVTSYAMGWYRQAPGKERELVAAITYGSGTTYADSVKGRFTISRDNAKNTVYLQMNSLKPEDTAVYYCAADFYYPVLGHGFPTYEYDYWGQGTQVTVSS,low polyreactivity
19,QVQLVDSGGGLVQAGGSLRLSCAASGYTFRYYAMGWYRQEPGKERELVAAITRSGTTYYADSVKGRFTISRDNAKNTVYIQMNSLKTDDTAVYYCNTRVTGNRLGYYYWGQGTQVTVSS,high polyreactivity
20,QVQLVDSGGGLVQAGGSLRLSCADSGSIFSRNTMGWYRQAPGKERELVAGISSSGSRTYYADSVKGRFTISRDNAKNTVYLQMNSLKPEDTAFYYCAAGSQRRYYHTNCDSFNYSGQGTQVTVSS,low polyreactivity
21,QVQLVDSGGGLVQAGGSLRLSCADSGSINGNYVMGWYRQAPRKERELVAAIRWTGGSTYYADTVKGRFTISRDNAKNTVYLQMNSLKPEDTAVYYCNAESTYYPSGEDYWGQGTQVNVSS,high polyreactivity
